Laboratory results published in US20240390497A1 (Stanford University, published 2024).

B1: humanized F11 monoclonal antibody (HuF11-G1) (antibody, V domains shown)
VH: QVQLVQSGAEVKKPGASVKVSCKASGYTFTDYHMDWVKQAPGQGLEWIGDIDPYNGDTVFNQKFKGKATMTRDTSISTAYMELSRLRSDDTAVYYCTRGGDYWGQGTLVTVSS
VL: DIVMTQTPLSLSVTPGQPASISCRSSQTLVHSNGNTYLHWYLQKPGQPPQLLIYKVSNRFSGVPDRFSGSGSGTDFTLKISRVEAEDVGVYFCSQSTHVPFTFGQGTKLEIK
notes: also called humanized F11 antibody
B2: humanized F11 monoclonal antibody (HuF11-G1 TM) (antibody, V domains shown)
VH: B1 VH
VL: B1 VL
notes: as for B1

Biological target: T1, human CD93/Fc fusion protein (human, UniProt Q9NPY3 22-580, limits assumed)
T1 construct: It was biotinylated or DyLight 650-conjugated for staining; also called CD93-Fc chimera protein; CD93-Fc biotinylated protein; not shown: Fc part
T1 sequence (looked up): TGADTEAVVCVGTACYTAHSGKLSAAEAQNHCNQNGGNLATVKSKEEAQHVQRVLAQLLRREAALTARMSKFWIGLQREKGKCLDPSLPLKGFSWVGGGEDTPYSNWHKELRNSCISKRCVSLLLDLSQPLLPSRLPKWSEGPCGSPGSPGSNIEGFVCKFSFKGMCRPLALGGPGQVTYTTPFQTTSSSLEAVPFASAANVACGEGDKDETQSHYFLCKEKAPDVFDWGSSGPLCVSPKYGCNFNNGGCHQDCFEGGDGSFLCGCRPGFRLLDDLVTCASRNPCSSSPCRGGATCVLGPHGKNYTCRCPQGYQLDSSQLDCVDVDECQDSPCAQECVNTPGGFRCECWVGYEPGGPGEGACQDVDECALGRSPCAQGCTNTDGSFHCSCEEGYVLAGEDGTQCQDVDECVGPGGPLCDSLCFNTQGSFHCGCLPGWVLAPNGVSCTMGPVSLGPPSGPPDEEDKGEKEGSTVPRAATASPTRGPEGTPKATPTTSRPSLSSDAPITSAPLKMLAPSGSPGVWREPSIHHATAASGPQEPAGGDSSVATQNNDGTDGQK
Assay: ELISA on coated human CD93/Fc, HRP anti-human kappa secondary, OD490
Description: FIGS. 2A-2O are sets of graphs illustrating that CD93-CAR T cells exert anti-leukemic effects against AML in vitro. FIG. 2A is a bar chart showing that humanized (“HuF11-G1” and “HuF11-G1 TM”) and chimeric F11 (“ChF11-G1”) monoclonal antibodies bind human CD93 with similar affinity. Human CD93/Fc fusion protein was coated in a 96-well plate and different concentrations of the antibodies as indicated were added. HRP-conjugated anti-human Kappa antibody was used as a secondary antibody. CD93 binding activity was measured by reading signals at OD490 […]. FIG. 2B is a cartoon showing the structure of CD93-28z and CD93-BBz CARs. […] Cells were fed with new media every 2-3 days, analyzed for transduction efficiency and phenotype on day 10-11, and processed for downstream experiments. FIG. 2D is a bar graph showing comparing transduction efficiency for each of aCAR molecule and control (“Mock”), measured by flow cytometry on day 10 after T cell activation. […] FIG. 2F is a set of graphs comparing expression levels of markers of T cell activation/exhaustion, including LAG-3, PD-1, TIM-3, and CD39, measured by flow cytometry on day 10 after T cell activation, prior to downstream experiments. […] FIG. 2G is a graph showing CD93 expression on AML cell lines, measured by flow cytometry after staining with biotinylated F11 antibody followed by streptavidin-APC. […]

Row | Binder | EC50 (read off the curve) [mg/L]
1 | B1 | ~0.03
2 | B2 | ~0.03
